Consider eight molecules from publication PMC10231232, “Expanding the Physiological Role of Aryl-Alcohol Flavooxidases as Quinone Reductases” (Applied and Environmental Microbiology, 2023).

Where two headings read alike, the source gives them in different places.

Series [1] has as its system T1, PoAAO.
T1 construct: gene AAO; 60,903 Da
Nature of the series: steady-state kinetics, absorbance of aldehyde formed. In kind it is biochemical, Pleurotus ostreatus. The following applies: apparent, air-saturated (0.256 mM O2), 50 mM NaPi pH 6.0, 25°C. From the text: steady-state kinetics, absorbance of aldehyde formed on PoAAO | The three enzymes oxidized the whole spectrum of alcohols although with different catalytic efficiencies.

The target in the next series is T2, BaAAO (Bjerkandera adusta, UniProt A0ABF7PQ87).
T2 construct: 62,610 Da; one cysteine
T2 sequence (A0ABF7PQ87 1-580): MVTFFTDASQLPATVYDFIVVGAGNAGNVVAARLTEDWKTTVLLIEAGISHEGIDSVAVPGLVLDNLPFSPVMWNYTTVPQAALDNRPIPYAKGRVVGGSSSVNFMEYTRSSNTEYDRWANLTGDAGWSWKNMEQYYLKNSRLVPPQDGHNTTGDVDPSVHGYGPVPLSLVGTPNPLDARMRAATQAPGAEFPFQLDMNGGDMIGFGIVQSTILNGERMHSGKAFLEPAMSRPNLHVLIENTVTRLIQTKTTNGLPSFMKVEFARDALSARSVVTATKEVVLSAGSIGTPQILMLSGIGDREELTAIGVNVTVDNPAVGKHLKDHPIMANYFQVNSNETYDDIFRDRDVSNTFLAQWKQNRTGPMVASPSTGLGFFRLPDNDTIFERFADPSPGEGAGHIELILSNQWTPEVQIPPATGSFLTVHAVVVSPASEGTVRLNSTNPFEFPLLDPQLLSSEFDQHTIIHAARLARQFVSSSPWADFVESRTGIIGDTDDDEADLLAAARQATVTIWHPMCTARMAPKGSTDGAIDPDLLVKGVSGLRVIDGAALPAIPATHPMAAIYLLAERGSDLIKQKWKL
Nature of the series: bi-substrate steady-state kinetics, anaerobic, BQ reduction at […] nm. In kind it is biochemical. The note with it: electron acceptor, p-methoxybenzyl alcohol as co-substrate (varied), ping-pong fit, 50 mM NaPi pH 6.0, 25°C.

The next series addresses T3, PeAAO (Pleurotus eryngii, UniProt O94219).
T3 construct: gene aao; 61,847 Da
T3 sequence (O94219 28-593): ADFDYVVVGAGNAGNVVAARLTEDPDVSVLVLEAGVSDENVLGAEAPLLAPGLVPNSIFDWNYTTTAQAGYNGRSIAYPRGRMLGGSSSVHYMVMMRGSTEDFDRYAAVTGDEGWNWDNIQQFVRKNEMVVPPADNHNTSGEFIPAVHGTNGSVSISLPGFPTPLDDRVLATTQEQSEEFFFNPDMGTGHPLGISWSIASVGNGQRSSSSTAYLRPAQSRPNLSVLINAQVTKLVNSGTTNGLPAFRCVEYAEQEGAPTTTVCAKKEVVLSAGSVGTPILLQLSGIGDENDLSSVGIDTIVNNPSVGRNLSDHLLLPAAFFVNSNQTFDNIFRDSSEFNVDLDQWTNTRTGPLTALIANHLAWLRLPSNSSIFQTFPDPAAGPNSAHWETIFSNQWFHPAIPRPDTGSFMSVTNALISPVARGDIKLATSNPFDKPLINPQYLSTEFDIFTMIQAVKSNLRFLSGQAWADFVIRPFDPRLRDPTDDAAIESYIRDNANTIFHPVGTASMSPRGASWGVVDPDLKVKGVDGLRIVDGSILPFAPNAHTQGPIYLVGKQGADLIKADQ
The description is as above. The note with it: electron acceptor, p-methoxybenzyl alcohol as co-substrate (varied), ping-pong fit, 50 mM NaPi pH 6.0, 25°C. In kind it is biochemical.

Series [2] has as its system T4, PoAAO.
T4 construct: gene AAO
The following applies: read-out: Km(acceptor); electron acceptor; p-methoxybenzyl alcohol as co-substrate (varied), ping-pong fit, anaerobic, 50 mM NaPi pH 6.0, 25°C.

Substrate in series [3]: COc1ccc(CO)cc1Cl
Nature of the series: steady-state kinetics, absorbance of aldehyde formed. In kind it is biochemical, Bjerkandera adusta. The following applies: apparent, air-saturated (0.256 mM O2), 50 mM NaPi pH 6.0, 25°C. From the text: (§1) steady-state kinetics, absorbance of aldehyde formed on BaAAO | The three enzymes oxidized the whole spectrum of alcohols although with different catalytic efficiencies.

Substrate in series [4]: CC=CC=CCO
The description is as above. In kind it is biochemical, Bjerkandera adusta. The note with it: apparent, air-saturated (0.256 mM O2), 50 mM NaPi pH 6.0, 25°C.
Excerpt: as §1

Substrate in series [5]: OCc1cccc(Cl)c1
The description is as above. The following applies: apparent, air-saturated (0.256 mM O2), 50 mM NaPi pH 6.0, 25°C. In kind it is biochemical, Bjerkandera adusta.
Excerpt: as §1

Substrate in series [6]: COc1cc(CO)ccc1O
Described as above. The note with it: apparent, air-saturated (0.256 mM O2), 50 mM NaPi pH 6.0, 25°C. In kind it is biochemical, Bjerkandera adusta.
Excerpt: as §1

Substrate in series [7]: OCc1cccc(Cl)c1
Nature of the series: purified protein, by the assay type. Further details: steady-state kinetics, spectrophotometric alcohol oxidation to aldehyde, air-saturated 50 mM NaPi pH 6.0, 25 C. The following applies: pH 6.0. As for the experimental part: Steady-state kinetic parameters were measured spectrophotometrically by monitoring the oxidation of the different alcohols to the corresponding aldehydes—Δε285, 16,950 M^−1 cm^−1 for [compound left out]; Δε240, 5,923 M^−1 cm^−1 for 3-chloro-benzyl alcohol; Δε309, 8,332 M^−1 cm^−1 for vanillyl alcohol; Δε307, 7,383 M^−1 cm^−1 for [compound left out]; Δε280, 30,140 M^−1 cm^−1 for 2,4-hexadien-1-ol from ([15]); Δε295, 15,000 M^−1 cm^−1 for 3-chloro-p-mehxoybenzyl alcohol from ([38]); and Δε310, 9,300 M^−1 cm^−1 for [compound left out] from Guillén et al. ([59])—in air-saturated (0.256 mM O2 concentration) 50 mM NaPi, pH 6.0, at 25°C. Steady-state kinetic analyses and statistical fits were performed using the SigmaPlot program. Apparent kinetic parameters in atmospheric oxygen were determined by fitting initial reaction rates (v0) at different alcohol concentrations to the Michaelis-Menten equation (equation 1). (1) v0/e = kcat[A]/Km + [A] The steady-state curves and resulting kinetic parameters for oxidation of different alcohols under atmospheric conditions with O2 as an electron acceptor were compared for PoAAO, BaAAO, and PeAAO (Fig. S4 and Table S1). The three enzymes oxidized the whole spectrum of alcohols although with different catalytic efficiencies.

Substrate in series [8]: COc1ccc(CO)cc1Cl
Description: steady-state kinetics, absorbance of aldehyde formed. In kind it is biochemical, Pleurotus eryngii. The following applies: apparent, air-saturated (0.256 mM O2), 50 mM NaPi pH 6.0, 25°C. The text has this:
(§2) steady-state kinetics, absorbance of aldehyde formed on PeAAO | The three enzymes oxidized the whole spectrum of alcohols although with different catalytic efficiencies.

Substrate in series [9]: CC=CC=CCO
The series is described as above. In kind it is biochemical, Pleurotus eryngii. The following applies: apparent, air-saturated (0.256 mM O2), 50 mM NaPi pH 6.0, 25°C.
Excerpt: as §2

On to `COc1ccc(CO)cc1O` [isovanillyl alcohol], for which the Km (in general, the substrate concentration at which the rate is half of its maximum) in the series with PoAAO [1] worked out at 713 ± 44 µM.
Turning to `COc1ccc(CO)cc1Cl` [3-chloro-p-methoxybenzyl alcohol], in the series on PoAAO [1], the Km came out at 9 ± 1 µM.
As for `O=C1C=CC(=O)C=C1` [BQ, p-benzoquinone], the Km at BaAAO was 70 ± 9 µM; on PeAAO it was 48 ± 6 µM; with PoAAO [2] it was 33 ± 4 µM.
With `OCc1cccc(Cl)c1` [3-chlorobenzyl alcohol], the Km in the series with PoAAO [1] was 80 ± 6 µM.
On to `COc1ccc(CO)cc1OC` [veratryl alcohol], for which the Michaelis-Menten constant (Km) in the series on PoAAO [1] is 212 ± 11 µM.
Same read-out and setting: to `CC=CC=CCO` [2,4-hexadien-1-ol] belongs 86 ± 4 µM.

B1: BaAAO (Bjerkandera adusta) (protein)
chain: T2 sequence (A0ABF7PQ87 1-580)
notes: 62,610 Da; one cysteine
B1: the Km in [3] was found to be 49 ± 4 µM; in series [4] it was 854 ± 32 µM; in series [5], 37 ± 5 µM; in series [6], 1960 ± 100 µM. The kcat (usually the maximal rate divided by the concentration of active sites) in series [3] came to 37 ± 1 s⁻¹; in series [4], 42 ± 1 s⁻¹; in series [5] it was 13 ± 1 s⁻¹; in series [6], 38 ± 1 s⁻¹.

B2: PeAAO (Pleurotus eryngii) (protein)
chain: T3 sequence (O94219 28-593)
notes: 61,847 Da
In the case of B2, the Km in series [7] is 107 ± 2 µM; in [8], 9 ± 1 µM; in series [9], 94 ± 4 µM. Also, the turnover number (kcat) in series [7] is 22 ± 1 s⁻¹; in [8], 34 ± 1 s⁻¹; in [9] it was 119 ± 1 s⁻¹. Besides, the kcat/Km in [7] is 203 ± 3 mM^-1s^- //.
